Laboratory results as given in the MegaScale stability set (Tsuboyama et al. 2023).

B1: r11_951_TrROS_Hall (parent)
chain: KKKYVIKVYFEDTGKEVEIEAESKEEALEAAKRLAEELGLKIKKVEIYP

Variants of: B1
Assay: folding stability dG (cDNA display proteolysis); higher = more stable
Conditions: PBS, room temperature

Row | Variant | folding stability dG
1 | KKCYVIKVYFEDTGKEVEIEAESKEEALEAAKRLAEELGLKIKKVEIYP [K3C] | 4.24 kcal/mol
2 | KKFYVIKVYFEDTGKEVEIEAESKEEALEAAKRLAEELGLKIKKVEIYP [K3F] | 4.64 kcal/mol
3 | KKSYVIKVYFEDTGKEVEIEAESKEEALEAAKRLAEELGLKIKKVEIYP [K3S] | 4.52 kcal/mol
4 | KKWYVIKVYFEDTGKEVEIEAESKEEALEAAKRLAEELGLKIKKVEIYP [K3W] | 4.83 kcal/mol
5 | KKRYVIKVYFEDTGKEVEIEAESKEEALEAAKRLAEELGLKIKKVEIYP [K3R] | 4.26 kcal/mol
6 | KKQYVIKVYFEDTGKEVEIEAESKEEALEAAKRLAEELGLKIKKVEIYP [K3Q] | 4.28 kcal/mol
7 | KKMYVIKVYFEDTGKEVEIEAESKEEALEAAKRLAEELGLKIKKVEIYP [K3M] | 4.59 kcal/mol
8 | KKPYVIKVYFEDTGKEVEIEAESKEEALEAAKRLAEELGLKIKKVEIYP [K3P] | 4.49 kcal/mol
9 | KKIYVIKVYFEDTGKEVEIEAESKEEALEAAKRLAEELGLKIKKVEIYP [K3I] | 4.27 kcal/mol
10 | KKGYVIKVYFEDTGKEVEIEAESKEEALEAAKRLAEELGLKIKKVEIYP [K3G] | 4.03 kcal/mol
11 | KKYYVIKVYFEDTGKEVEIEAESKEEALEAAKRLAEELGLKIKKVEIYP [K3Y] | 4.54 kcal/mol
12 | KKDYVIKVYFEDTGKEVEIEAESKEEALEAAKRLAEELGLKIKKVEIYP [K3D] | 3.86 kcal/mol
13 | KKVYVIKVYFEDTGKEVEIEAESKEEALEAAKRLAEELGLKIKKVEIYP [K3V] | 4.24 kcal/mol
14 | KKHYVIKVYFEDTGKEVEIEAESKEEALEAAKRLAEELGLKIKKVEIYP [K3H] | 4.39 kcal/mol
15 | KKTYVIKVYFEDTGKEVEIEAESKEEALEAAKRLAEELGLKIKKVEIYP [K3T] | 4.4 kcal/mol
16 | KKEYVIKVYFEDTGKEVEIEAESKEEALEAAKRLAEELGLKIKKVEIYP [K3E] | 3.9 kcal/mol
17 | KKAYVIKVYFEDTGKEVEIEAESKEEALEAAKRLAEELGLKIKKVEIYP [K3A] | 4.46 kcal/mol
18 | KKNYVIKVYFEDTGKEVEIEAESKEEALEAAKRLAEELGLKIKKVEIYP [K3N] | 4.11 kcal/mol
19 | KKLYVIKVYFEDTGKEVEIEAESKEEALEAAKRLAEELGLKIKKVEIYP [K3L] | 4.63 kcal/mol
20 | YKKYVIKVYFEDTGKEVEIEAESKEEALEAAKRLAEELGLKIKKVEIYP [K1Y] | 4.52 kcal/mol
21 | PKKYVIKVYFEDTGKEVEIEAESKEEALEAAKRLAEELGLKIKKVEIYP [K1P] | 4.64 kcal/mol
22 | QKKYVIKVYFEDTGKEVEIEAESKEEALEAAKRLAEELGLKIKKVEIYP [K1Q] | 4.6 kcal/mol
23 | AKKYVIKVYFEDTGKEVEIEAESKEEALEAAKRLAEELGLKIKKVEIYP [K1A] | 4.25 kcal/mol
24 | HKKYVIKVYFEDTGKEVEIEAESKEEALEAAKRLAEELGLKIKKVEIYP [K1H] | 4.46 kcal/mol
25 | CKKYVIKVYFEDTGKEVEIEAESKEEALEAAKRLAEELGLKIKKVEIYP [K1C] | 4.57 kcal/mol
26 | LKKYVIKVYFEDTGKEVEIEAESKEEALEAAKRLAEELGLKIKKVEIYP [K1L] | 4.52 kcal/mol
27 | NKKYVIKVYFEDTGKEVEIEAESKEEALEAAKRLAEELGLKIKKVEIYP [K1N] | 4.47 kcal/mol

Row | Variant | folding stability dG
28 | FKKYVIKVYFEDTGKEVEIEAESKEEALEAAKRLAEELGLKIKKVEIYP [K1F] | 4.54 kcal/mol
29 | VKKYVIKVYFEDTGKEVEIEAESKEEALEAAKRLAEELGLKIKKVEIYP [K1V] | 4.51 kcal/mol
30 | EKKYVIKVYFEDTGKEVEIEAESKEEALEAAKRLAEELGLKIKKVEIYP [K1E] | 4.16 kcal/mol
31 | MKKYVIKVYFEDTGKEVEIEAESKEEALEAAKRLAEELGLKIKKVEIYP [K1M] | 4.8 kcal/mol
32 | DKKYVIKVYFEDTGKEVEIEAESKEEALEAAKRLAEELGLKIKKVEIYP [K1D] | 4.22 kcal/mol
33 | GKKYVIKVYFEDTGKEVEIEAESKEEALEAAKRLAEELGLKIKKVEIYP [K1G] | 4.64 kcal/mol
34 | IKKYVIKVYFEDTGKEVEIEAESKEEALEAAKRLAEELGLKIKKVEIYP [K1I] | 4.6 kcal/mol
35 | SKKYVIKVYFEDTGKEVEIEAESKEEALEAAKRLAEELGLKIKKVEIYP [K1S] | 4.25 kcal/mol
36 | WKKYVIKVYFEDTGKEVEIEAESKEEALEAAKRLAEELGLKIKKVEIYP [K1W] | 4.38 kcal/mol
37 | RKKYVIKVYFEDTGKEVEIEAESKEEALEAAKRLAEELGLKIKKVEIYP [K1R] | 4.71 kcal/mol
38 | TKKYVIKVYFEDTGKEVEIEAESKEEALEAAKRLAEELGLKIKKVEIYP [K1T] | 4.5 kcal/mol
39 | KKKIVIKVYFEDTGKEVEIEAESKEEALEAAKRLAEELGLKIKKVEIYP [Y4I] | 4.29 kcal/mol
40 | KKKSVIKVYFEDTGKEVEIEAESKEEALEAAKRLAEELGLKIKKVEIYP [Y4S] | 3.36 kcal/mol
41 | KKKCVIKVYFEDTGKEVEIEAESKEEALEAAKRLAEELGLKIKKVEIYP [Y4C] | 3.85 kcal/mol
42 | KKKLVIKVYFEDTGKEVEIEAESKEEALEAAKRLAEELGLKIKKVEIYP [Y4L] | 3.93 kcal/mol
43 | KKKAVIKVYFEDTGKEVEIEAESKEEALEAAKRLAEELGLKIKKVEIYP [Y4A] | 3.08 kcal/mol
44 | KKKQVIKVYFEDTGKEVEIEAESKEEALEAAKRLAEELGLKIKKVEIYP [Y4Q] | 3.55 kcal/mol
45 | KKKFVIKVYFEDTGKEVEIEAESKEEALEAAKRLAEELGLKIKKVEIYP [Y4F] | 4.2 kcal/mol
46 | KKKTVIKVYFEDTGKEVEIEAESKEEALEAAKRLAEELGLKIKKVEIYP [Y4T] | 3.74 kcal/mol
47 | KKKVVIKVYFEDTGKEVEIEAESKEEALEAAKRLAEELGLKIKKVEIYP [Y4V] | 4.58 kcal/mol
48 | KKKPVIKVYFEDTGKEVEIEAESKEEALEAAKRLAEELGLKIKKVEIYP [Y4P] | 2.44 kcal/mol
49 | KKKDVIKVYFEDTGKEVEIEAESKEEALEAAKRLAEELGLKIKKVEIYP [Y4D] | 2.33 kcal/mol
50 | KKKNVIKVYFEDTGKEVEIEAESKEEALEAAKRLAEELGLKIKKVEIYP [Y4N] | 2.92 kcal/mol
51 | KKKGVIKVYFEDTGKEVEIEAESKEEALEAAKRLAEELGLKIKKVEIYP [Y4G] | 2.47 kcal/mol
52 | KKKWVIKVYFEDTGKEVEIEAESKEEALEAAKRLAEELGLKIKKVEIYP [Y4W] | 4.31 kcal/mol
53 | KKKRVIKVYFEDTGKEVEIEAESKEEALEAAKRLAEELGLKIKKVEIYP [Y4R] | 2.98 kcal/mol
